Reference: the Human Domainome abundance scans (Beltran et al. 2025)
± gives the uncertainty stated by the source.

B1: SAM and SH3 domain-containing protein 1, residues 630 to 700; numbered along this chain, O94885 (parent)
chain: GRPPQPKSVEDLLDRINLKEHMPTFLFNGYEDLDTFKLLEEEDLDELNIRDPEHRAVLLTAVELLQEYDSN
B2: Proto-oncogene vav, residues 782 to 842; numbered along this chain, P15498 (parent)
chain: KYFGTAKARYDFCARDRSELSLKEGDIIKILNKKGQQGWWRGEIYGRVGWFPANYVEEDYS

Variants of: B1
Experiment: abundance fitness (aPCA) (normalised: wild type 0, dead -1); higher = more abundant; growth selection in yeast, the domain comes from the species named
Conditions: Homo sapiens

Row | Variant | abundance fitness
1 | GRPPQPKSVEDLLDRINLKEHMPTFLFNGYEDLDTFKLLEEEDLDELNIRDPEHRAVLLTSVELLQEYDSN [A61S] | -0.225 ± 0.042
2 | GRPPQEKSVEDLLDRINLKEHMPTFLFNGYEDLDTFKLLEEEDLDELNIRDPEHRAVLLTAVELLQEYDSN [P6E] | -0.481 ± 0.084
3 | GAPPQPKSVEDLLDRINLKEHMPTFLFNGYEDLDTFKLLEEEDLDELNIRDPEHRAVLLTAVELLQEYDSN [R2A] | -0.489 ± 0.072
4 | GRPPQPKSVEDLLDRINLKEHMPTFLFNGYEDLDTFKLLEEEDLDELNIRDPEARAVLLTAVELLQEYDSN [H54A] | -0.169 ± 0.039
5 | GRPPQPKSVMDLLDRINLKEHMPTFLFNGYEDLDTFKLLEEEDLDELNIRDPEHRAVLLTAVELLQEYDSN [E10M] | -0.398 ± 0.06
6 | GRPPQPKSVGDLLDRINLKEHMPTFLFNGYEDLDTFKLLEEEDLDELNIRDPEHRAVLLTAVELLQEYDSN [E10G] | -0.434 ± 0.063
7 | GRPPQPKSVEDLLDRINLKEHMPTFLFNGYEDLDTSKLLEEEDLDELNIRDPEHRAVLLTAVELLQEYDSN [F36S] | -0.749 ± 0.06
8 | GRPPQPKSVEDLLDSINLKEHMPTFLFNGYEDLDTFKLLEEEDLDELNIRDPEHRAVLLTAVELLQEYDSN [R15S] | 0.116 ± 0.033
9 | GRPPQPKSVEDLLDMINLKEHMPTFLFNGYEDLDTFKLLEEEDLDELNIRDPEHRAVLLTAVELLQEYDSN [R15M] | 0.142 ± 0.042
10 | GRPPQPKSVEDLLDRINLKEHMPTFLFNGYEDLDTFKLLEEEDVDELNIRDPEHRAVLLTAVELLQEYDSN [L44V] | -0.791 ± 0.059
11 | GRPPQPKSVEDLLDRIRLKEHMPTFLFNGYEDLDTFKLLEEEDLDELNIRDPEHRAVLLTAVELLQEYDSN [N17R] | -0.645 ± 0.051
12 | GRPPQPKSVEDLLDRINLKEHMPTFLFNLYEDLDTFKLLEEEDLDELNIRDPEHRAVLLTAVELLQEYDSN [G29L] | -0.907 ± 0.063
13 | GRPPQPKSVEDLLDRINLKEHMPTFLFNGYEDLDTFKLLEEEDLDELNIRDPEHRAVLLTAVEHLQEYDSN [L64H] | 0.222 ± 0.041
14 | GRPPQPKSVEDLLDRINLKEHMPTFLFNGYEDLDTFKLLEEEDLDELNIRDPEHRAVVLTAVELLQEYDSN [L58V] | -0.53 ± 0.06
15 | GRPPQPKSVEWLLDRINLKEHMPTFLFNGYEDLDTFKLLEEEDLDELNIRDPEHRAVLLTAVELLQEYDSN [D11W] | -0.793 ± 0.093
16 | GRPPQPKSVEDLLDRINLKEHMPTFLFNGYEDLDTFKLLEEEDLDELNIRDPEHRVVLLTAVELLQEYDSN [A56V] | -0.493 ± 0.048
17 | GRPPQPKSVEDLLDRINLKEHMPTFLFNGYEDLDTFELLEEEDLDELNIRDPEHRAVLLTAVELLQEYDSN [K37E] | -0.64 ± 0.097
18 | GRPPQPKSVEDLLDRINLHEHMPTFLFNGYEDLDTFKLLEEEDLDELNIRDPEHRAVLLTAVELLQEYDSN [K19H] | -0.262 ± 0.05
19 | GRPPQPKSVEDLLDRINLKEHHPTFLFNGYEDLDTFKLLEEEDLDELNIRDPEHRAVLLTAVELLQEYDSN [M22H] | -0.313 ± 0.049
20 | GRPPQPKSVEDLLDRINLKEHQPTFLFNGYEDLDTFKLLEEEDLDELNIRDPEHRAVLLTAVELLQEYDSN [M22Q] | -0.366 ± 0.056
21 | GRPPQPKSVEDLLDRINLKEHMPTFLFNGYEDLDTFKLLEEEDLDELNIRDPEHRAVLLTAIELLQEYDSN [V62I] | -0.14 ± 0.052
22 | GRPPQPKSVEDLLDRINLKEHMPTFLFNGYEDLDTFKLLEEEDLDELNIRDPEHRAVLLTAVELAQEYDSN [L65A] | -0.625 ± 0.065
23 | GRPPQPKSVEDLLDRINLKEHMPTFLFNGYEDLDTFKLLEEEDLDELNISDPEHRAVLLTAVELLQEYDSN [R50S] | -0.06 ± 0.036
24 | GRPPQPKSVEDLLPRINLKEHMPTFLFNGYEDLDTFKLLEEEDLDELNIRDPEHRAVLLTAVELLQEYDSN [D14P] | -0.834 ± 0.086
25 | GRPPQPKSVEDLLCRINLKEHMPTFLFNGYEDLDTFKLLEEEDLDELNIRDPEHRAVLLTAVELLQEYDSN [D14C] | -0.215 ± 0.054
26 | GRPPQPKSVEDLLDRINLKFHMPTFLFNGYEDLDTFKLLEEEDLDELNIRDPEHRAVLLTAVELLQEYDSN [E20F] | -0.502 ± 0.071
27 | GRPPQPKSVEDLLDRINLKEHMPHFLFNGYEDLDTFKLLEEEDLDELNIRDPEHRAVLLTAVELLQEYDSN [T24H] | -0.698 ± 0.064
28 | GRPPQPKSVEDLLDRINLKEHMPTFLFNGYEDLDTFKLLEEEDLDELIIRDPEHRAVLLTAVELLQEYDSN [N48I] | -0.985 ± 0.24
29 | GRPPQPKSVEDLLDRINLKEHMPTFLFNGYEDLDTFKLLEEEDLDEENIRDPEHRAVLLTAVELLQEYDSN [L47E] | -0.765 ± 0.094
30 | GRPPQPKSVEDLNDRINLKEHMPTFLFNGYEDLDTFKLLEEEDLDELNIRDPEHRAVLLTAVELLQEYDSN [L13N] | -0.802 ± 0.091

Variants of: B2
Experiment: as above
Conditions: Homo sapiens

Row | Variant | abundance fitness
31 | KDFGTAKARYDFCARDRSELSLKEGDIIKILNKKGQQGWWRGEIYGRVGWFPANYVEEDYS [Y2D] | 0.021 ± 0.14
32 | KGFGTAKARYDFCARDRSELSLKEGDIIKILNKKGQQGWWRGEIYGRVGWFPANYVEEDYS [Y2G] | -0.15 ± 0.093
33 | KKFGTAKARYDFCARDRSELSLKEGDIIKILNKKGQQGWWRGEIYGRVGWFPANYVEEDYS [Y2K] | -0.392 ± 0.23
34 | KMFGTAKARYDFCARDRSELSLKEGDIIKILNKKGQQGWWRGEIYGRVGWFPANYVEEDYS [Y2M] | -0.082 ± 0.12
35 | KIFGTAKARYDFCARDRSELSLKEGDIIKILNKKGQQGWWRGEIYGRVGWFPANYVEEDYS [Y2I] | -0.097 ± 0.27
36 | KRFGTAKARYDFCARDRSELSLKEGDIIKILNKKGQQGWWRGEIYGRVGWFPANYVEEDYS [Y2R] | -0.226 ± 0.083
37 | KCFGTAKARYDFCARDRSELSLKEGDIIKILNKKGQQGWWRGEIYGRVGWFPANYVEEDYS [Y2C] | -0.229 ± 0.1
38 | KEFGTAKARYDFCARDRSELSLKEGDIIKILNKKGQQGWWRGEIYGRVGWFPANYVEEDYS [Y2E] | -0.238 ± 0.18
39 | KLFGTAKARYDFCARDRSELSLKEGDIIKILNKKGQQGWWRGEIYGRVGWFPANYVEEDYS [Y2L] | -0.323 ± 0.065
40 | KSFGTAKARYDFCARDRSELSLKEGDIIKILNKKGQQGWWRGEIYGRVGWFPANYVEEDYS [Y2S] | -0.033 ± 0.078
41 | KFFGTAKARYDFCARDRSELSLKEGDIIKILNKKGQQGWWRGEIYGRVGWFPANYVEEDYS [Y2F] | 0.061 ± 0.11
